Experimental data taken from US20210230280A1 (EXIRIS S R L, published 2021).
Residue numbers refer to the chain shown, from its start. Values joined by “and” are separate entries in the source; they are usually repeats but may differ in a detail not shown here. Identical values can stand only once.

Assays:
[1] = target: T1, human chimeric receptor FGFR4-Fc (R&D Systems) (human, UniProt P22455 22-369); assay: competition ELISA, FGF19 binding to FGFR4-Fc
T1 construct: extracellular domain; bought; also called hFGFR4-Fc; not shown: human IgG Fc
T1 sequence (looked up): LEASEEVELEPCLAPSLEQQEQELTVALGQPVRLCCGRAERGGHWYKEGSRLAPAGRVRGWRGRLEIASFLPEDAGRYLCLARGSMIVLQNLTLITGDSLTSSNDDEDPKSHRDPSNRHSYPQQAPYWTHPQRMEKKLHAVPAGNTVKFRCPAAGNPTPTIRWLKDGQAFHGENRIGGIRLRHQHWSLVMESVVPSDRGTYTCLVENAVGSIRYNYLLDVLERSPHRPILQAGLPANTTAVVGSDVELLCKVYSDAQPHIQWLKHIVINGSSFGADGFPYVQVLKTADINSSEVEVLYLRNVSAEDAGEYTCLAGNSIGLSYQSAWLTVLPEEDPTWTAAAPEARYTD

murine FGFR4 = target: T2, murine FGFR4 (mouse, UniProt Q03142 17-799); assay: told with the epitope alignment
T2 construct: whole, on cells; full-length, on transfected BOSC23 cells; also called murine receptor; murine FL FGFR4
T2 sequence (looked up): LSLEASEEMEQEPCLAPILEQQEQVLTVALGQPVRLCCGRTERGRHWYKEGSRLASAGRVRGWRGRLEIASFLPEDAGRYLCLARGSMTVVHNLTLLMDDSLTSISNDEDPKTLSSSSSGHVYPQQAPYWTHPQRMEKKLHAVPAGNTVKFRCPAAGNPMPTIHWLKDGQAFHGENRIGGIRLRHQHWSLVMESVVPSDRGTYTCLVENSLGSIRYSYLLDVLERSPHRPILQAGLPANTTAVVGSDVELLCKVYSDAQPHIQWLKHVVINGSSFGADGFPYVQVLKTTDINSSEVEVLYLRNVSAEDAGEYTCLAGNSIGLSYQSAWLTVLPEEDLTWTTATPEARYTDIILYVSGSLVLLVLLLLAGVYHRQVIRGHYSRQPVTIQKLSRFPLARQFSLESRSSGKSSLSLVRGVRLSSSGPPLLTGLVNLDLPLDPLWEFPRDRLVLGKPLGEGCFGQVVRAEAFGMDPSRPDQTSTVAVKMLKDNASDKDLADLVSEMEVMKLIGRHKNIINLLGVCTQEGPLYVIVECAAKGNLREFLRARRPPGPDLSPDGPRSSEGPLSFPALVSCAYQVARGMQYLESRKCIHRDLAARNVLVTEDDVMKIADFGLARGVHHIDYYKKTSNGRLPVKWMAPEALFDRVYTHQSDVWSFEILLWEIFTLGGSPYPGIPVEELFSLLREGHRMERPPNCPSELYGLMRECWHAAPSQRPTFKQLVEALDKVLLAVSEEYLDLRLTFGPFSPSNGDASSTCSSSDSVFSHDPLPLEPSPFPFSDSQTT

[2] = target: T3, human chimeric receptor FGFR3-Fc (R&D Systems) (human, UniProt P22607 23-375); assay: solid phase receptor binding assay
T3 construct: extracellular domain; not shown: human Fc
T3 sequence (looked up): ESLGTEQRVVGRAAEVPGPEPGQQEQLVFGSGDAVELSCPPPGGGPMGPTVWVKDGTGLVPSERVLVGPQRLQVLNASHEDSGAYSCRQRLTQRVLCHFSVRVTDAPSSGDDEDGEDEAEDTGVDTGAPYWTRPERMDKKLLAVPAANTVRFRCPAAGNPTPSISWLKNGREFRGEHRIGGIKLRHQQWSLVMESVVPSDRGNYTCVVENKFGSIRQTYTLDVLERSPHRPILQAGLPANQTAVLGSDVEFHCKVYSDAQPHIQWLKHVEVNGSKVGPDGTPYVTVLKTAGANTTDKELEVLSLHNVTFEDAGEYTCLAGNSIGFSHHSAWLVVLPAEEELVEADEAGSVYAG

B1: Hu3B6a (antibody, human IgG1, V domains shown)
VH: EVQLVESGGGLVQPGGSLRLSCAASGFTFSNYYMSWVRQAPGKGLEWVATINPSGTRTYYPDSVKGRFTISRDNAKNSLYLQMNSLRAEDTAVYYCARLYNNYAFDYWGQGTLVTVSS
VL: DIQMTQSPSSLSASVGDRVTITCRASESISTLLHWYQQKPGKAPKLLIYGTSNLESGVPSRFSGSGSGTDFTLTISSLQPEDFATYYCQQSWNDPPTFGGGTKVEIK
IC50 [1]: 0.13 µg/mL and 0.87 nM

B2: Hu3B6f (antibody, human IgG1, V domains shown)
VH: B1 VH with N74S, N77S
VL: B1 VL with I29V, L33M
IC50 [1]: 0.09 µg/mL and 0.6 nM

B3: Hu3B6d (antibody, human IgG1, V domains shown)
VH: B1 VH
VL: B1 VL with I29V, L33M
IC50 [1]: 0.03 µg/mL and 0.2 nM

B4: Hu3B6b (antibody, human IgG1, V domains shown)
VH: B1 VH with T50N
VL: B1 VL
IC50 [1]: 0.4 µg/mL and 2.7 nM

B5: Hu3B6c (antibody, human IgG1, V domains shown)
VH: B1 VH with N74S, N77S
VL: B1 VL
IC50 [1]: 0.07 µg/mL and 0.47 nM

B6: Hu3B6e (antibody, human IgG1, V domains shown)
VH: B1 VH with T50N
VL: B1 VL with I29V, L33M
IC50 [1]: 0.16 µg/mL and 1 nM

B7: ch3B6 (antibody, human IgG1, V domains shown)
VH: EVQLVESGGGLVQPGRSLKLSCAASGFTFSNYYMAWVRQAPKKGLEWVATINPSGTRTYYPDSVKGRFTLSRDSAKSSLYLQMNSLKSEDTATFYCARLYNNYAFDYWGQGVMVTVSS
VL: DVQMTQSPALAVSPGERVSISCRASESVSTLMHWYQQKPGQQPKLLIYGTSNLESGVPARFSGSGSGTDFTLNIDPVEADDTATYFCQQSWNDPPTFGGGTKLELK
notes: human-rat chimeric antibody, human IgG1 constant regions and human kappa constant region; also called chimeric 3B6
binding result (murine FGFR4): binds | binding result [2]: no binding (tested: 9 ug/mL)
